Experimental data reported in patent US20030044858A1.

The substances below were run against FcεRI alpha chain on CHO 3D10 cells (UniProt P12319) (assay: FACS, 1.65 ug/ml, CHO 3D10 cells).
Sequence of FcεRI alpha chain on CHO 3D10 cells (P12319 26-257 limits assumed): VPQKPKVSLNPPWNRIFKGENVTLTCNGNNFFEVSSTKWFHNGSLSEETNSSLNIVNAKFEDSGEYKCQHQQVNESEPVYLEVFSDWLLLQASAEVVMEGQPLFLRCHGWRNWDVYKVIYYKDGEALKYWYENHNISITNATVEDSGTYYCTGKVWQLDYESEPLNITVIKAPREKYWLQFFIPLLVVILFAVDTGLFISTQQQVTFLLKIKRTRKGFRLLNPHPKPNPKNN

Sequence of human IgE (U266 IgE) (P01854 whole entry): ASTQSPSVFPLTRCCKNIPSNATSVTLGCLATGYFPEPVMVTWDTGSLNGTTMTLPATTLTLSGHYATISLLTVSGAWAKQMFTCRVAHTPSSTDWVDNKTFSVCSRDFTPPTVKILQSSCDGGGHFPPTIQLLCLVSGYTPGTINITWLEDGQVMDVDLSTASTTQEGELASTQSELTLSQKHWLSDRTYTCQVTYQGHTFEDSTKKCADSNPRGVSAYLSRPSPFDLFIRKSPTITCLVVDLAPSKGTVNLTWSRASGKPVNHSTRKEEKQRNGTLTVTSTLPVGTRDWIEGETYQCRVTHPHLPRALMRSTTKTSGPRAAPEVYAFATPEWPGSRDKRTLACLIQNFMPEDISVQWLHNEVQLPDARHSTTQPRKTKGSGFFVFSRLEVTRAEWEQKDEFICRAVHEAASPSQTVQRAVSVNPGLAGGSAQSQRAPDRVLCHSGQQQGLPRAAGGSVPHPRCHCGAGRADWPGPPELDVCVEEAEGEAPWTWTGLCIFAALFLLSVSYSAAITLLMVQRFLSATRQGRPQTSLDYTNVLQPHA
Sequence of human IgE mutant 3 (loop CD exchanged) (P01854 other isoform, or with tags, fused parts or gaps, change not shown): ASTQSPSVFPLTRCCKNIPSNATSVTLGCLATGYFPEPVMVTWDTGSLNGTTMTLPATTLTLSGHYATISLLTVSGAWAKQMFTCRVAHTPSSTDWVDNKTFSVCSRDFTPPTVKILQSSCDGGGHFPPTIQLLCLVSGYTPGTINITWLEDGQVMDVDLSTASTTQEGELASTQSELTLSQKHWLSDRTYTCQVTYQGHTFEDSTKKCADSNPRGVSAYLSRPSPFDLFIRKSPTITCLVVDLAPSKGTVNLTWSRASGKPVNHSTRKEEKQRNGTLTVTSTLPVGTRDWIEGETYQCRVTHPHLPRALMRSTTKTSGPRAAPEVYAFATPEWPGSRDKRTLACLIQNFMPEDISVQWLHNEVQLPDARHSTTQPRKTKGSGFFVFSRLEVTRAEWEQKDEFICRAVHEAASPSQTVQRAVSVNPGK
Sequence of human IgE mutant 12 (S471A, T473A) (P01854 other isoform, or with tags, fused parts or gaps, stated change not applied): as the sequence (P01854 other isoform, or with tags, fused parts or gaps, change not shown) above
Sequence of human IgE mutant 10 (T438A, T440A) (P01854 other isoform, or with tags, fused parts or gaps, stated change not applied): as the sequence (P01854 other isoform, or with tags, fused parts or gaps, change not shown) above
Sequence of human IgE mutant 4 (loop EF exchanged) (P01854 other isoform, or with tags, fused parts or gaps, change not shown): as above
Sequence of human IgE mutant 7 (383-385 RKS to AAA) (P01854 other isoform, or with tags, fused parts or gaps, change not shown): as above
Sequence of human IgE mutant 13 (Fcε2: 329-331 and 334-336 to Ala) (P01854 other isoform, or with tags, fused parts or gaps, change not shown): as above
Sequence of human IgE mutant 5 (loop FG exchanged) (P01854 other isoform, or with tags, fused parts or gaps, change not shown): as above
Sequence of human IgE mutant 1 (loop AB exchanged for human IgG1 loop) (P01854 other isoform, or with tags, fused parts or gaps, change not shown): as above
Sequence of human IgE mutant 11 (Q455A, R457A, T459A) (P01854 other isoform, or with tags, fused parts or gaps, stated change not applied): as the sequence (P01854 other isoform, or with tags, fused parts or gaps, change not shown) above
Sequence of human IgE mutant 2 (loop BC exchanged) (P01854 other isoform, or with tags, fused parts or gaps, change not shown): as above
Sequence of human IgE mutant 9 (N403A, T405A) (P01854 other isoform, or with tags, fused parts or gaps, stated change not applied): as the sequence (P01854 other isoform, or with tags, fused parts or gaps, change not shown) above
Sequence of human IgE mutant 6 (β-strand D exchanged) (P01854 other isoform, or with tags, fused parts or gaps, change not shown): as above
Sequence of human IgE mutant 8 (T387A, T389A) (P01854 other isoform, or with tags, fused parts or gaps, stated change not applied): as the sequence (P01854 other isoform, or with tags, fused parts or gaps, change not shown) above

Row | % CHO 3D10 (+) [%] | Substance
1 | 1.7 | human IgE mutant 1 (loop AB exchanged for human IgG1 loop) (from UniProt P01854 1-428) (antibody)
2 | 4.9 | human IgE mutant 4 (loop EF exchanged) (from UniProt P01854 1-428) (antibody)
3 | 84.7 | human IgE mutant 12 (S471A, T473A) (from UniProt P01854 1-428) (antibody)
4 | 70.3 | human IgE mutant 8 (T387A, T389A) (from UniProt P01854 1-428) (antibody)
5 | 76.4 | human IgE mutant 7 (383-385 RKS to AAA) (from UniProt P01854 1-428) (antibody)
6 | 32.3 | human IgE mutant 3 (loop CD exchanged) (from UniProt P01854 1-428) (antibody)
7 | 34.3 | human IgE mutant 2 (loop BC exchanged) (from UniProt P01854 1-428) (antibody)
8 | 1.4 | human IgE mutant 6 (β-strand D exchanged) (from UniProt P01854 1-428) (antibody)
9 | 85.7 | human IgE mutant 13 (Fcε2: 329-331 and 334-336 to Ala) (from UniProt P01854 1-428) (antibody)
10 | 67.5 | human IgE mutant 10 (T438A, T440A) (from UniProt P01854 1-428) (antibody)
11 | 84.2 | human IgE mutant 9 (N403A, T405A) (from UniProt P01854 1-428) (antibody)
12 | 60.5 | human IgE mutant 5 (loop FG exchanged) (from UniProt P01854 1-428) (antibody)
13 | 70.8 | human IgE mutant 11 (Q455A, R457A, T459A) (from UniProt P01854 1-428) (antibody)

What follows are substances tested against T1, FcεRII (CD23) on IM9 cells (human) (UniProt P06734) (assay: FACS, 1.65 ug/ml, IM9 cells).
T1 sequence (looked up): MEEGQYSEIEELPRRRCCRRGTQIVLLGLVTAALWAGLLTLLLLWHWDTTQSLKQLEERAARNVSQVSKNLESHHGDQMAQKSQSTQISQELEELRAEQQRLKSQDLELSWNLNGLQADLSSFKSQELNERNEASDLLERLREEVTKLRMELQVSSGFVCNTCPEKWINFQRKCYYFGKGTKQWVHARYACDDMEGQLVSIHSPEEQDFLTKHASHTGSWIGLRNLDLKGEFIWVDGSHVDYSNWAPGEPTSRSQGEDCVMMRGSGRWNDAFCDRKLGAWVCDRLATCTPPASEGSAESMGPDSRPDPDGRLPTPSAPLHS

Row | % IM9 (+) [%] | Substance
14 | 4.3 | human IgE mutant 1 (loop AB exchanged for human IgG1 loop) (from UniProt P01854 1-428) (antibody)
15 | 9.2 | human IgE mutant 4 (loop EF exchanged) (from UniProt P01854 1-428) (antibody)
16 | 90.3 | human IgE mutant 12 (S471A, T473A) (from UniProt P01854 1-428) (antibody)
17 | 16.3 | human IgE mutant 8 (T387A, T389A) (from UniProt P01854 1-428) (antibody)
18 | 4.6 | human IgE mutant 7 (383-385 RKS to AAA) (from UniProt P01854 1-428) (antibody)
19 | 1.2 | human IgE mutant 3 (loop CD exchanged) (from UniProt P01854 1-428) (antibody)
20 | 48.9 | human IgE mutant 2 (loop BC exchanged) (from UniProt P01854 1-428) (antibody)
21 | 71.6 | human IgE mutant 6 (β-strand D exchanged) (from UniProt P01854 1-428) (antibody)
22 | 96.1 | human IgE mutant 13 (Fcε2: 329-331 and 334-336 to Ala) (from UniProt P01854 1-428) (antibody)
23 | 84.8 | human IgE mutant 10 (T438A, T440A) (from UniProt P01854 1-428) (antibody)
24 | 94.3 | human IgE mutant 9 (N403A, T405A) (from UniProt P01854 1-428) (antibody)
25 | 73.9 | human IgE mutant 5 (loop FG exchanged) (from UniProt P01854 1-428) (antibody)
26 | 61.5 | human IgE mutant 11 (Q455A, R457A, T459A) (from UniProt P01854 1-428) (antibody)

What follows are substances tested against T1, FcεRII (CD23) on IM9 cells (human) (assay: FACS, 0.1 ug/ml, IM9 cells).

Row | % IM9 (+) [%] | Substance
27 | 1.7 | human IgE (U266 IgE) (from UniProt P01854 1-546) (antibody)

Each substance was assayed against FcεRI alpha chain on CHO 3D10 cells (UniProt P12319) (assay: FACS, 0.1 ug/ml, CHO 3D10 cells).

Row | % CHO 3D10 (+) [%] | Substance
28 | 15.8 | human IgE (U266 IgE) (from UniProt P01854 1-546) (antibody)

The substances below were run against FcεRI alpha chain on CHO 3D10 cells (UniProt P12319) (assay: FACS, 0.5 ug/ml, CHO 3D10 cells).

Row | % CHO 3D10 (+) [%] | Substance
29 | 59.6 | human IgE (U266 IgE) (from UniProt P01854 1-546) (antibody)

These substances were tested against FcεRI alpha chain on CHO 3D10 cells (UniProt P12319) (assay: FACS, 10 ug/ml, CHO 3D10 cells).

Row | % CHO 3D10 (+) [%] | Substance
30 | 90.3 | human IgE (U266 IgE) (from UniProt P01854 1-546) (antibody)

Each substance was assayed against T1, FcεRII (CD23) on IM9 cells (human) (assay: FACS, 0.5 ug/ml, IM9 cells).

Row | % IM9 (+) [%] | Substance
31 | 4.6 | human IgE (U266 IgE) (from UniProt P01854 1-546) (antibody)

Each substance was assayed against T1, FcεRII (CD23) on IM9 cells (human) (assay: FACS, 5 ug/ml, IM9 cells).

Row | % IM9 (+) [%] | Substance
32 | 82.6 | human IgE (U266 IgE) (from UniProt P01854 1-546) (antibody)

The substances below were run against FcεRI alpha chain on CHO 3D10 cells (UniProt P12319) (assay: FACS, 5 ug/ml, CHO 3D10 cells).

Row | % CHO 3D10 (+) [%] | Substance
33 | 89.9 | human IgE (U266 IgE) (from UniProt P01854 1-546) (antibody)

What follows are substances tested against T1, FcεRII (CD23) on IM9 cells (human) (assay: FACS, 10 ug/ml, IM9 cells).

Row | % IM9 (+) [%] | Substance
34 | 92.5 | human IgE (U266 IgE) (from UniProt P01854 1-546) (antibody)
